From US20260209348A1 (University of California, published 2026) come the findings set out here.

Experiment [1] addresses T1, human ROR2 (human, UniProt Q01974 34-403, limits assumed). Put plainly: SPR.
Experiment [2] concerns the target T1, human ROR2. Put plainly: SPR. Summed up:
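Humanized monoclonal antibodies against human ROR2, made by transferring murine complementarity-determining regions into human acceptor frameworks with the constant region switched to human IgG1, were assessed by surface plasmon resonance. Their affinity for human ROR2 is expressed as the dissociation constant (Kd) in nM.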
This is another data set of the same source. A general note: In SPR one partner is held on a chip, and binding of the other changes the refractive index at the surface.

Residue numbers refer to the chain shown, from its start. Like-named read-outs stand apart in the source and are kept apart here.

T1 sequence (Q01974 34-403 limits assumed): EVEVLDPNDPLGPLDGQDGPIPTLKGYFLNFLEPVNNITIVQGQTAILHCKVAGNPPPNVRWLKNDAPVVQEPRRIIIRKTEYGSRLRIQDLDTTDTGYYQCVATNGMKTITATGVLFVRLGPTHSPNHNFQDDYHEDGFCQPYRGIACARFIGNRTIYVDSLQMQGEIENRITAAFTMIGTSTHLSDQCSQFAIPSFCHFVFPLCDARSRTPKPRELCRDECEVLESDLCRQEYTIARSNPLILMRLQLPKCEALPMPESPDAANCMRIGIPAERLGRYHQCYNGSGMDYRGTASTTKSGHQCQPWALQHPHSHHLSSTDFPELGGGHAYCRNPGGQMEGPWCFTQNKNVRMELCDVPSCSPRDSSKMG

B1: grafted humanized 6E6: VH3-21*01 (extended) + VK1-12*01 (IMGT) (antibody, V domains shown)
VH: EVQLVESGGGLVKPGGSLRLSCAASGFTFSNYGMSWVRQAPGKGLEWVSTISSGGGYTHYVDSVKGRFTISRDNAKNSLYLQMNSLRAEDTAVYYCARHPRDFSYAMDYWGQGTTVTVSS
VL: DIQMTQSPSSVSASVGDRVTITCRASQDVGHYLAWYQQKPGKAPKLLIYWASSLQSGVPSRFSGSGSGTDFTLTISSLQPEDFATYYCQQYNIYPWTFGQGTKVEIK
notes: expressed as IgG
For B1, in experiment [1], binding was characterised by a dissociation constant (Kd) of 0.52 nM.

B2: h6E6-038 (antibody, V domains shown)
VH: B1 VH with N31R, V61A, D62P, L86P, M107Q
VL: EIVMTQSPATLSVSPGERATLSCKASQDVGHYLAWYQQKPGQAPRLLIYWASTRHTGIPARFSGSGSGTEFTLTISSLQSEDFAVYYCQQYNIYPWTFGQGTKVEIK
notes: also called clone 38
B2: binding in experiment [2] was characterised by a dissociation constant (Kd) of 0.147 nM.

B3: h6E6-097 (antibody, V domains shown)
VH: B1 VH with N31A, D62E
VL: B2 VL with L33V, H55A
notes: also called clone 97
For the molecule B3, in experiment [2], binding was characterised by a dissociation constant (Kd) of 0.096 nM.

B4: grafted humanized 6E6: VH3-11*03 (IMGT) + VK1-12*01 (extended) (antibody, V domains shown)
VH: B1 VH with E1Q, V5L, V37I, T50Y, H59N, V61A
VL: B1 VL with R24K, L33V, S53T, L54R, Q55H, S56T
notes: expressed as IgG
For the molecule B4, the Kd – broadly, the equilibrium constant for the complex coming apart – in experiment [1] was determined as 162 nM.

B5: h6E6-025 (antibody, V domains shown)
VH: B1 VH with N31H, M34H, D62E
VL: B2 VL with K24R, L33V, H55A
notes: also called clone 25
In turn, B5 had a dissociation constant Kd in experiment [2] of 0.509 nM.

B6: h6E6-089 (antibody, V domains shown)
VH: B1 VH with N31D, M34I, D62Q
VL: B2 VL with H55A
notes: also called clone 89
For B6, the Kd in experiment [2] was 2.2 nM.

B7: h6E6-046 (antibody, V domains shown)
VH: B1 VH with N31R, M34I, V61A, D62T
VL: B2 VL with L33V
notes: also called clone 46
On to B7, for which, in experiment [2], the Kd is 0.527 nM.

B8: h6E6-069 (antibody, V domains shown)
VH: B1 VH with N31K, M34V, D62E
VL: B2 VL with H55A
notes: also called clone 69
B8 had an equilibrium dissociation constant (Kd) in experiment [2] of 0.407 nM.

B9: h6E6-062 (antibody, V domains shown)
VH: B1 VH with N31S, M34H, H59Y, V61A, D62E, M107H
VL: B2 VL with H55A
notes: also called clone 62
As for B9, the dissociation constant (Kd) in experiment [2] turned out to be 0.839 nM.

B10: h6E6-049 (antibody, V domains shown)
VH: B1 VH with T50S, V61A, D62E
VL: B2 VL with L33V, H55A
notes: also called clone 49
Molecule B10 displayed a Kd in experiment [2] of 1.4 nM.

B11: grafted humanized 6E6: VH3-11*03 (extended) + VK1-12*01 (IMGT) (antibody, V domains shown)
VH: B1 VH with E1Q, V5L, V37I
VL: B1 VL
notes: expressed as IgG
Turning to B11, the binding result in experiment [1] is reported as “no binding”.

B12: h6E6-084 (antibody, V domains shown)
VH: B1 VH with N31Q, D62Q, M107Q
VL: B2 VL with H55A
notes: also called clone 84
The molecule B12 returned a Kd in experiment [2] of 0.108 nM.

B13: grafted humanized 6E6: VH3-21*01 (IMGT) + VK1-12*01 (extended) (antibody, V domains shown)
VH: B1 VH with S35N, T50S, H59Y, V61A
VL: B1 VL with R24K, L33V, S53T, L54R, Q55H, S56T
notes: expressed as IgG
Regarding B13, the binding result in experiment [1] is reported as “no binding”.

B14: h6E6-050 (antibody, V domains shown)
VH: B1 VH with N31R, M107H
VL: B2 VL with H55A
notes: also called clone 50
In experiment [2], B14 yielded a Kd of 0.482 nM. That is a sub-nanomolar value.

B15: h6E6-076 (antibody, V domains shown)
VH: B1 VH with N31G, D62E, M107L
VL: B2 VL with H55A
notes: also called clone 76
The molecule B15 returned a dissociation constant (Kd) in experiment [2] of 0.203 nM.

B16: h6E6-033 (antibody, V domains shown)
VH: B1 VH with N31T, D62T
VL: B2 VL with L33V
notes: also called clone 33
B16 returned a Kd in experiment [2] of 0.144 nM.

B17: h6E6-081 (antibody, V domains shown)
VH: B1 VH with N31S, S35N, V61A, M107Q
VL: B2 VL with K24R, L33V
notes: also called clone 81
In turn, B17 had a dissociation constant Kd in experiment [2] of 0.062 nM.

B18: h6E6-054 (antibody, V domains shown)
VH: B1 VH with M34V, D62T, M107L
VL: B2 VL with L33V, H55A
notes: also called clone 54
With B18, the dissociation constant Kd in experiment [2] was 0.178 nM.

B19: grafted humanized 6E6: VH3-21*01 (IMGT) + VK1-12*01 (IMGT) (antibody, V domains shown)
VH: B1 VH with S35N, T50S, H59Y, V61A
VL: B1 VL
notes: expressed as IgG
In the case of B19, the binding result in experiment [1] was “no binding”.

B20: h6E6-052 (antibody, V domains shown)
VH: B1 VH with N31H, M34T, V61A, D62E, M107I
VL: B2 VL with H55A
notes: also called clone 52
The molecule B20 had a Kd in experiment [2] of 0.533 nM.

B21: h6E6-071 (antibody, V domains shown)
VH: B1 VH with N31H, V61A, D62E, M107F
VL: B2 VL
notes: also called clone 71
For B21, the equilibrium dissociation constant (Kd) in experiment [2] came to 0.582 nM.

B22: h6E6-099 (antibody, V domains shown)
VH: B1 VH with S35N, V61A, D62P
VL: B2 VL with L33V, H55A
notes: also called clone 99
B22 came in with a dissociation constant Kd in experiment [2] of 0.286 nM.

B23: h6E6-047 (antibody, V domains shown)
VH: B1 VH with N31K, L45P, V61A, D62T, M107L
VL: B2 VL with K24R, L33V, H55A
notes: also called clone 47
The molecule B23 returned a dissociation constant (Kd) in experiment [2] of 0.086 nM.

B24: h6E6-082 (antibody, V domains shown)
VH: B1 VH with N31K, V61A
VL: B2 VL
notes: also called clone 82
Regarding B24, the dissociation constant Kd in experiment [2] was 0.812 nM.

B25: grafted humanized 6E6: VH3-11*03 (extended) + VK1-12*01 (extended) (antibody, V domains shown)
VH: B1 VH with E1Q, V5L, V37I
VL: B1 VL with R24K, L33V, S53T, L54R, Q55H, S56T
notes: expressed as IgG
In experiment [1], B25 had a Kd of 2.1 nM.

B26: h6E6-045 (antibody, V domains shown)
VH: B1 VH with N31G, D62Q
VL: B2 VL with L33V, H55A
notes: also called clone 45
As for B26, binding in experiment [2] was put at a Kd of 0.134 nM. This lies in the sub-nanomolar range.

B27: h6E6-110 (antibody, V domains shown)
VH: B1 VH with N31H, M34V, V61A, D62E, M107Q
VL: B2 VL with K24R, H55A
notes: also called clone 110
Regarding B27, the dissociation constant Kd in experiment [2] worked out at 0.073 nM.

B28: h6E6-026 (antibody, V domains shown)
VH: B1 VH with N31R, V61A, D62A
VL: B2 VL with L33V
notes: also called clone 26
B28 gave a dissociation constant (Kd) in experiment [2] of 0.335 nM.

B29: h6E6-064 (antibody, V domains shown)
VH: B1 VH with N31H, M34I, T50S, V61A, D62E
VL: B2 VL with K24R, L33V, H55A
notes: also called clone 64
In experiment [2], B29 registered a Kd of 5.8 nM.

B30: h6E6-051 (antibody, V domains shown)
VH: B1 VH with M107L
VL: B2 VL with L33V, H55A
notes: also called clone 51
For B30, the Kd in experiment [2] came to 0.16 nM. Compared with the last molecule, the Kd is about 36-fold lower.

B31: h6E6-031 (antibody, V domains shown)
VH: B1 VH with N31S, V61A, D62E, A75D, M107I
VL: B2 VL with K24R, L33V
notes: also called clone 31
As for B31, in experiment [2], the Kd was found to be 0.103 nM.

B32: h6E6-109 (antibody, V domains shown)
VH: B1 VH with M34T, D62T
VL: B2 VL with L33V, H55A
notes: also called clone 109
On to B32, for which binding in experiment [2] was characterised by a dissociation constant (Kd) of 0.151 nM.

B33: grafted humanized 6E6: VH3-11*03 (IMGT) + VK1-12*01 (IMGT) (antibody, V domains shown)
VH: B1 VH with E1Q, V5L, V37I, T50Y, H59N, V61A
VL: B1 VL
notes: expressed as IgG
As for B33, binding in experiment [1] was characterised by a dissociation constant (Kd) of 178 nM.

B34: h6E6-106 (antibody, V domains shown)
VH: B1 VH with N31S, M34I, H59Y, M107L
VL: B2 VL with L33V, H55A
notes: also called clone 106
The molecule B34 displayed a dissociation constant Kd in experiment [2] of 0.642 nM.

B35: grafted humanized 6E6: VH3-21*01 (IMGT) + VK1-8*01 (IMGT) (antibody, V domains shown)
VH: B1 VH with S35N, T50S, H59Y, V61A
VL: B1 VL with D1A, Q3R, V11F, V15T, S53T, S77C, P80S
notes: expressed as IgG
Turning to B35, the binding result in experiment [1] was “no binding”.

B36: h6E6-115 (antibody, V domains shown)
VH: B1 VH with N31G, D62T, M107L
VL: B2 VL with K24R, H55A
notes: also called clone 115
In experiment [2], B36 came in with a Kd of 0.187 nM.

B37: h6E6-117 (antibody, V domains shown)
VH: B1 VH with N31V, M34I, V61A, D62P
VL: B2 VL with L33V, H55A
notes: also called clone 117
With B37, binding in experiment [2] was characterised by a dissociation constant (Kd) of 0.323 nM.

B38: h6E6-078 (antibody, V domains shown)
VH: B1 VH with N31A, M34S, V61A, D62P
VL: B2 VL with L33V, H55A
notes: also called clone 78
B38: the Kd in experiment [2] is 0.476 nM.

B39: h6E6-032 (antibody, V domains shown)
VH: B1 VH with M34T, V61A, D62E
VL: B2 VL with H55A
notes: also called clone 32
As for B39, binding in experiment [2] was put at a Kd of 0.479 nM.

B40: h6E6-090 (antibody, V domains shown)
VH: B1 VH with N31T, M34T, V61A, D62P, M107L
VL: B2 VL
notes: also called clone 90
As to B40, in experiment [2], the affinity, expressed as Kd, was 0.178 nM.

B41: h6E6-030 (antibody, V domains shown)
VH: B1 VH with N31S, V61A, D62A
VL: B2 VL with H55A
notes: also called clone 30
In turn, B41 gave a dissociation constant (Kd) in experiment [2] of 0.221 nM. This Kd and that of the molecule before are within 1.5-fold of each other.

B42: grafted humanized 6E6: VH3-11*03 (extended) + VK1-8*01 (IMGT) (antibody, V domains shown)
VH: B1 VH with E1Q, V5L, V37I
VL: B1 VL with D1A, Q3R, V11F, V15T, S53T, S77C, P80S
notes: expressed as IgG
In experiment [1], B42 yielded a dissociation constant Kd of 1.1 nM.
